Results taken from patent US20040131678A1, “Resorbable bone cement containing active agents” (priority 2001, published 2004).

What was measured:
S. aureus = test: Standard killing assay of released peptide; type: cell-based; conditions: medium samples from release experiment
Description: In the release experiments the cement powder (40 mg) was mixed on a glass plate with TGFβ-containing liquid (13.3 μl), giving a paste of 53 mg cement with 133 ng TGFβ and 250 μg DHVAR 5. After 1 min of mixing the cement paste was applied into a Teflon mould with a diameter of 5 mm and measuring 1 mm in height. After 2 min the cement pellets were removed from the mould and added to the wells of 12-well culture plates (Costar, Cambridge, Mass., USA). Complete culture medium (Dulbecco's modified Eagle's medium (DMEM, Gibco-BRL Life Technologies Ltd. Paisley, UK) with 10% fetal bovine serum (FBS; Gibco) was added at 1 ml per well, to wells containing a TGFβ DHVAR5 enriched cement pellet as described above. The multiwell plates were incubated at 37° C. in 5% CO2 and 95% humidity. Culture medium was renewed completely at suitable time intervals (0.5, 1, 2, 4, 24, 48 hr and 1, 2, 4 and 8 weeks), and the medium samples were stored at −20° C. until used for TGFβ and DHVAR 5 determination. TGFβ was determined in the collected culture medium samples using a commercially available enzyme-linked immunosorbant assay (ELISA) (Promega, Madison, Wis., USA). A few cement pellets were crushed in the well with a mortar at 48 hr, after removal of the medium. […] The amount of DHVAR5 released was determined by subjecting medium samples to capillary zone electrophoresis. […]

[1] = Release kinetics of bone growth factor and antimicrobial peptide from cement pellets into culture medium; type: physicochemical; conditions: for cumulative release of TGFβ, of the original amount mixed in the cement: ELISA
Description: The release kinetics of the bone growth factor and of the antimicrobial peptide from bone substitute have been determined as follows:
In the release experiments the cement powder (40 mg) was mixed on a glass plate with TGFβ-containing liquid (13.3 μl), giving a paste of 53 mg cement with 133 ng TGFβ and 250 μg DHVAR 5. After 1 min of mixing the cement paste was applied into a Teflon mould with a diameter of 5 mm and measuring 1 mm in height. After 2 min the cement pellets were removed from the mould and added to the wells of 12-well culture plates (Costar, Cambridge, Mass., USA). Complete culture medium (Dulbecco's modified Eagle's medium (DMEM, Gibco-BRL Life Technologies Ltd. Paisley, UK) with 10% fetal bovine serum (FBS; Gibco) was added at 1 ml per well, to wells containing a TGFβ DHVAR5 enriched cement pellet as described above. The multiwell plates were incubated at 37° C. in 5% CO2 and 95% humidity. Culture medium was renewed completely at suitable time intervals (0.5, 1, 2, 4, 24, 48 hr and 1, 2, 4 and 8 weeks), and the medium samples were stored at −20° C. until used for TGFβ and DHVAR 5 determination. TGFβ was determined in the collected culture medium samples using a commercially available enzyme-linked immunosorbant assay (ELISA) (Promega, Madison, Wis., USA). A few cement pellets were crushed in the well with a mortar at 48 hr, after removal of the medium. The fragments were incubated in fresh medium for 1 hr; medium was then removed and stored for DHVAR5 and TGFβ determination. The amount of DHVAR5 released was determined by subjecting medium samples to capillary zone electrophoresis. Biological activity against S. aureus was confirmed in a standard killing assay. TGFβ was assayed by standard immunological analysis and by examination of the potency to promote cell growth as described above. The release of TGFβ from a cement pellet that incorporated TGFβ and DHVAR5 (133 ng TGFβ and 250 μg DHVAR 5 in 53 mg cement) at the time of setting of the cement, is shown in FIGS. 3 and 4 respectively. A rapid TGFβ release was found in the first 4 hr followed by a much slower release. The cumulative release found after 4 hr was 0.5% of the original amount of TGFβ mixed in the cement and increased to 1% after 48 hr. Release of TGFβ continued slowly hereafter, with maximal 0.1% released during the next 8 weeks (data not shown).
Similar results were obtained with peptides of Seq. ID Nos. 1-3, 5-7.

LLLFLLKKRKKRKY [DHVAR-5, anti-microbial peptide, synthetic derivative based on histatin 5 carboxyterminal]
Biological activity against S. aureus of released peptide (S. aureus): confirmed | antimicrobial peptide released from the cement material ([1]; after 4 days): more than 80% | release of DHVAR 5 from the cement material ([1]; within 48 hours, capillary zone electrophoresis, DMEM with 10% FBS, 37° C.): 70%

TGFβ
cumulative release of TGFβ, of the original amount mixed in the cement ([1]; after 4 hr, cement pellet 133 ng TGFβ and 250 μg DHVAR 5 in 53 mg cement, DMEM with 10% FBS, 37° C.): 0.5% | cumulative release of TGFβ, of the original amount mixed in the cement ([1]; after 48 hr, same pellet, DMEM with 10% FBS, 37° C.): 1% | TGFβ released during the next 8 weeks ([1]; after the first 48 hr, maximal, data not shown): ≤ 0.1% | TGFβ released within 1 hr after fragmentation ([1]; pellets fragmented at 48 hr, fresh medium 1 hr, data not shown): approximately 0.5%

gentamicin [reference compound]
release kinetics from cement ([1]; in a similar test): incomplete and slow release kinetics
